T1: BtubB-N100E (Prosthecobacter (species  for …, UniProt Q8GCC1 1-426, N100E))
T1 sequence: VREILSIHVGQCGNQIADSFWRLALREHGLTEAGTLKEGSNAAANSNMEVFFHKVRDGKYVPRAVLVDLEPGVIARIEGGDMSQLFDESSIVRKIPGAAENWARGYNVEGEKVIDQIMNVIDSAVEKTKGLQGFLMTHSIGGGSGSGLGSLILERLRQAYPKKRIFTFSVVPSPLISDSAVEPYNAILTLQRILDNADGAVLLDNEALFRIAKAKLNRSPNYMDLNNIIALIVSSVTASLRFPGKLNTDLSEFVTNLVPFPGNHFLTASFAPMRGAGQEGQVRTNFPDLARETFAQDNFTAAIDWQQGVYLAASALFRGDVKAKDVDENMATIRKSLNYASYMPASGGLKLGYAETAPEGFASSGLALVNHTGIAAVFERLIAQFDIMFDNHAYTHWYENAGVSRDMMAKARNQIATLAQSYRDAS

B1: BtubB, wild type (natural protein)
chain: VREILSIHVGQCGNQIADSFWRLALREHGLTEAGTLKEGSNAAANSNMEVFFHKVRDGKYVPRAVLVDLEPGVIARIEGGDMSQLFDESSIVRKIPGAANNWARGYNVEGEKVIDQIMNVIDSAVEKTKGLQGFLMTHSIGGGSGSGLGSLILERLRQAYPKKRIFTFSVVPSPLISDSAVEPYNAILTLQRILDNADGAVLLDNEALFRIAKAKLNRSPNYMDLNNIIALIVSSVTASLRFPGKLNTDLSEFVTNLVPFPGNHFLTASFAPMRGAGQEGQVRTNFPDLARETFAQDNFTAAIDWQQGVYLAASALFRGDVKAKDVDENMATIRKSLNYASYMPASGGLKLGYAETAPEGFASSGLALVNHTGIAAVFERLIAQFDIMFDNHAYTHWYENAGVSRDMMAKARNQIATLAQSYRDAS
notes: BtubB, bacterial tubulin-like protein of Prosthecobacter; the species is printed only for BtubA (P. dejongeii); also called B-wt; BtubB WT; source: E. coli, purified as described previously [3], with an added Sephacryl HR-100 column step; not shown: His tag, N-terminal, kept
B2: BtubB-D249K (natural protein)
chain: VREILSIHVGQCGNQIADSFWRLALREHGLTEAGTLKEGSNAAANSNMEVFFHKVRDGKYVPRAVLVDLEPGVIARIEGGDMSQLFDESSIVRKIPGAANNWARGYNVEGEKVIDQIMNVIDSAVEKTKGLQGFLMTHSIGGGSGSGLGSLILERLRQAYPKKRIFTFSVVPSPLISDSAVEPYNAILTLQRILDNADGAVLLDNEALFRIAKAKLNRSPNYMDLNNIIALIVSSVTASLRFPGKLNTKLSEFVTNLVPFPGNHFLTASFAPMRGAGQEGQVRTNFPDLARETFAQDNFTAAIDWQQGVYLAASALFRGDVKAKDVDENMATIRKSLNYASYMPASGGLKLGYAETAPEGFASSGLALVNHTGIAAVFERLIAQFDIMFDNHAYTHWYENAGVSRDMMAKARNQIATLAQSYRDAS
notes: BtubB of Prosthecobacter (species printed only for BtubA: P. dejongeii) with the point mutation D249K; The running text twice calls it BtubA-D249K; also called between-dimer mutant on the bottom of BtubB; source: E. coli, purified as described previously [3], with an added Sephacryl HR-100 column step; not shown: His tag, N-terminal, kept
B3: BtubA-V179K (natural protein, P. dejongeii)
chain: MKVNNTIVVSIGQAGNQIAASFWKTVCLEHGIDPLTGQTAPGVAPRGNWSSFFSKLGESSSGSYVPRAIMVDLEPSVIDNVKATSGSLFNPANLISRTEGAGGNFAVGYLGAGREVLPEVMSRLDYEIDKCDNVGGIIVLHAIGGGTGSGFGALLIESLKEKYGEIPVLSCAVLPSPQKSSVVTEPYNTVFALNTLRRSADACLIFDNEALFDLAHRKWNIESPTVDDLNLLITEALAGITASMRFSGFLTVEITLRELLTNLVPQPSLHFLMCAFAPLTPPDRSKFEELGIEEMIKSLFDNGSVFAACSPMEGRFLSTAVLYRGIMEDKPLADAALAAMREKLPLTYWIPTAFKIGYVEQPGISHRKSMVLLANNTEIARVLDRICHNFDKLWQRKAFANWYLNEGMSEEQINVLRASAQELVQSYQVAEESGAKAKVQDSAGDTGMRAAAAGVSDDARGSMSLRDLVDRRR
B4: BtubA, wild type (natural protein, P. dejongeii)
chain: MKVNNTIVVSIGQAGNQIAASFWKTVCLEHGIDPLTGQTAPGVAPRGNWSSFFSKLGESSSGSYVPRAIMVDLEPSVIDNVKATSGSLFNPANLISRTEGAGGNFAVGYLGAGREVLPEVMSRLDYEIDKCDNVGGIIVLHAIGGGTGSGFGALLIESLKEKYGEIPVLSCAVLPSPQVSSVVTEPYNTVFALNTLRRSADACLIFDNEALFDLAHRKWNIESPTVDDLNLLITEALAGITASMRFSGFLTVEITLRELLTNLVPQPSLHFLMCAFAPLTPPDRSKFEELGIEEMIKSLFDNGSVFAACSPMEGRFLSTAVLYRGIMEDKPLADAALAAMREKLPLTYWIPTAFKIGYVEQPGISHRKSMVLLANNTEIARVLDRICHNFDKLWQRKAFANWYLNEGMSEEQINVLRASAQELVQSYQVAEESGAKAKVQDSAGDTGMRAAAAGVSDDARGSMSLRDLVDRRR

What was measured:
[1] = biological target: B4; test: AUC; sedimentation equilibrium of BtubA + BtubB mixtures, 20°C, 10,000-14,000 rpm, HMK buffer (50 mM Hepes, 5 mM MgAc, 350 mM KAc, 1 mM EGTA, pH 7.7), no GTP; molar ratios 1:4 to 4:1, each protein 8 to 32 µM; global fit to a monomer-dimer model (HeteroAnalysis); conditions: both partners purified
[2] = biological target: B3; test: as above; conditions: both partners purified
[3] = biological target: B1; test: cell-based or functional assay
[4] = biological target: B2; test: cell-based or functional assay
[5] = biological target: T1, BtubB-N100E; test: cell-based or functional assay

Row | Binder | GTPase activity of the 1:1 mixture, per BtubB (GTP regeneration, coupled NADH assay, ∼29°C) [3] | GTPase activity of the 1:1 mixture, per BtubB (GTP regeneration, coupled NADH assay, ∼29°C) [4] | further results
1 | B1 | – | – | Kd [1]: 7.3 µM
2 | B2 | – | – | Kd [2]: 3.2 µM
3 | B3 | 0.072 GTP min^−1 Btub^−1 | 0.079 GTP min^−1 Btub^−1 | –
4 | B4 | – | 0.077 GTP min^−1 Btub^−1 | –
5 | BtubA-E258K (natural protein, P. dejongeii) MKVNNTIVVSIGQAGNQIAASFWKTVCLEHGIDPLTGQTAPGVAPRGNWSSFFSKLGESSSGSYVPRAIMVDLEPSVIDNVKATSGSLFNPANLISRTEGAGGNFAVGYLGAGREVLPEVMSRLDYEIDKCDNVGGIIVLHAIGGGTGSGFGALLIESLKEKYGEIPVLSCAVLPSPQVSSVVTEPYNTVFALNTLRRSADACLIFDNEALFDLAHRKWNIESPTVDDLNLLITEALAGITASMRFSGFLTVEITLRKLLTNLVPQPSLHFLMCAFAPLTPPDRSKFEELGIEEMIKSLFDNGSVFAACSPMEGRFLSTAVLYRGIMEDKPLADAALAAMREKLPLTYWIPTAFKIGYVEQPGISHRKSMVLLANNTEIARVLDRICHNFDKLWQRKAFANWYLNEGMSEEQINVLRASAQELVQSYQVAEESGAKAKVQDSAGDTGMRAAAAGVSDDARGSMSLRDLVDRRR | 0.088 GTP min^−1 Btub^−1 | – | GTPase activity of the 1:1 mixture, per BtubB (GTP regeneration, coupled NADH assay, ∼29°C) [5]: 0.098 GTP min^−1 Btub^−1
